Measurements taken from IntAct's records for PubMed 12128212.

B1: Protein daughter of sevenless (Drosophila melanogaster (Fruit fly)), Q9VZZ9 (parent)
chain: MDRTFYEGWLIKSPPTKRIWRARWRRRYFTLKQGEIPEQFCLEYYTDHNCRKLKGVIDLDQCEQVDCGLRLENRKQKFQYMFDIKTPKRTYYLAAETEADMRDWVNCICQVCHLHDTKQSNELPLGAVGADENRTQHTSSSGGLSNSTQNTTTTSLHSSAGTTAPQASVPNAGGSAQLRRPAVIEEQPMPSNAGNNNSDSVYVNTEYSNRETMLCDANFDQQELLSAAQQQPPPSPATALYLNHSALIQAQAAAAAAEQLQQQQQQAARLAVSANGVVRKLPEHLVLTQQTLAEAAAQQHSSVQASPALSTASGPYIPISECFSGSPRFLPGVPLPGADLAIPNNPTTPLNNLDPKFYDTPRSHNNIGLNLTNDQSYSPKITNLSLQQLANNNASKQRSDSDSESVFTDDDEWAHPLPLRENVDRSTRPSDSSIENESFVLTYSQRFSKMPEEGGAIVPPAEKSSKLAGAASLPEAGDQGTLDKLAKVLKNKNNLILDFKENEKIPRDLPQLSDTENTSPAIVARRNAHSAFIEESYDIPRSHQQPYYNVNQLLGERPVTSPHNSNPIAASTPNLMAADLGAVAAISAAANPGLMGEAQAVASSPTSARTLPRHCYTNAAPTKMEGNVFRYDFMEQADCPPVNRKLKPKVAGGLPVVEDKPPEEFPAKPPVGVDQLTNKLGAAQLQQPIGPPSVDRKCKPNAYKLGNSATMSPATRRSSGAPLSMVLPHETDVHSPAAANAFFHETRTLPRQQHRHHPNSPGSMSVQHQRTASAAAAMMSLTAAAAPKQQAAAQTEHKLQYFDLDVTNKPPLLNRSSMSVGNLYSQGGNGASGMRFAGVEAGGARAPVPSSVVYRSVDFVKTEAFKRIREERESSGNK

Variants of: B1
Conditions: with grap_drome drk

| Variant | effect of a mutation on the interaction |
| --- | --- |
| R644K;R696K | disrupting interaction strength |
| R696K | decreasing interaction strength |
| R644K | decreasing interaction strength |

Variants of: B1
Conditions: with grap_drome drk
Remark: another data set of the same source

| Variant | effect of a mutation on the interaction |
| --- | --- |
| R644K;R696K | disrupting interaction strength |
